Reference: WO2007014992A2 (dated 2007)

Target: T1, human LDL (Low Density Lipoprotein) receptor (human, UniProt P01130 22-860)
T1 construct: whole, on cells; Endogenous receptor on human A549 and MDA-MB-231 cells (flow cytometry); also called LDL-R; human LDL-R
Experiment: Western blot of total protein extracts of MDA-MB-231 cells

T1 sequence (P01130 22-860): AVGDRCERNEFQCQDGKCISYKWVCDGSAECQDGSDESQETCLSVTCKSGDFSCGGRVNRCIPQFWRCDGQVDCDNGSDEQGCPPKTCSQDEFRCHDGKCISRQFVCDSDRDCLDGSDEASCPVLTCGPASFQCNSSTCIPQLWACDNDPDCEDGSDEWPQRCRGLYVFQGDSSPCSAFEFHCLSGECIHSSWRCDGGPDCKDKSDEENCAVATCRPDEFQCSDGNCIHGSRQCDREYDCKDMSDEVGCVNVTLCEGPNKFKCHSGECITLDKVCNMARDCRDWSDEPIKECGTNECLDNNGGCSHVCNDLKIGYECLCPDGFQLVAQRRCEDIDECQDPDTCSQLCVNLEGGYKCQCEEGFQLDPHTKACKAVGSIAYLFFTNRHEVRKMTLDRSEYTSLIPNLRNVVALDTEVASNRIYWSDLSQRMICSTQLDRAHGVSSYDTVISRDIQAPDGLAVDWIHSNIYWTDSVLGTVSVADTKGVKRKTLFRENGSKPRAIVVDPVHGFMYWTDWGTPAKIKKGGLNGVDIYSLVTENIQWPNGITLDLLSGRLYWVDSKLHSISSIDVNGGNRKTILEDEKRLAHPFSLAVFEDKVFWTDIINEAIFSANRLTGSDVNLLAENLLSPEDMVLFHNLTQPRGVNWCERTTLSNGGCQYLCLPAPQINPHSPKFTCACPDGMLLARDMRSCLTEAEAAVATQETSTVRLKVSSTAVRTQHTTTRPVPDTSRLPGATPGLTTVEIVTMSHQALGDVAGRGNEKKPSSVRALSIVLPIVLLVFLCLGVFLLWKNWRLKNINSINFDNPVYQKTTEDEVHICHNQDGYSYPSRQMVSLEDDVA

binding result: binds
B1: Anti-LDL-R 5E5 monoclonal antibody produced by the hybridoma H5E5 (CNCM I-3488) (antibody, V domains shown)
VH: QVQLQQSGPELVRPGVSVKISCKGSGYTFTDYAMHWVKQSHAQSLEWIGFISTYSGNTNYNQKFKGRATMTVDKSSSTAYMELARLTSEDSAIYYCARPNYYGSSPGGFAYWGQGTLVTVSA
VL: ENVLTQSPAIMSASLGEKVTMSCRARSSVNYMYWYQQKSDASPKLWIYYTSNLAPGVPARFSGSGSGNSYSLTISSMEGEDAATYYCQQFTSSPSFGGGTKLEIK
notes: also called anti-LDL-R 5E5 antibodies; murine antibody 5E5
